According to article PMC3514286 (PLoS ONE, 2012):

T1: GroES L27A mutant (E. coli, UniProt P0A6F9 1-97, L27A)
T1 sequence: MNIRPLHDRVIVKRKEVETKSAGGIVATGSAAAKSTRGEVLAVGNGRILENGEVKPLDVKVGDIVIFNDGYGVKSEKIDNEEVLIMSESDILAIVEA

T2: GroES (E. coli, UniProt P0A6F9 1-97)
T2 sequence: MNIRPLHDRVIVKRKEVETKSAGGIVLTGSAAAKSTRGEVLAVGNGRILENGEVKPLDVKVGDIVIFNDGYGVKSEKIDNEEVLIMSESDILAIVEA


Key:
GroES L27A mutant = target: T1, GroES L27A mutant; experiment: cell-based or functional assay
mHsp10 L33A mutant = mHsp10 L33A mutant (human, UniProt P61604 1-102, L33A); experiment: cell-based or functional assay
Sequence of mHsp10 L33A mutant (P61604 whole entry L33A): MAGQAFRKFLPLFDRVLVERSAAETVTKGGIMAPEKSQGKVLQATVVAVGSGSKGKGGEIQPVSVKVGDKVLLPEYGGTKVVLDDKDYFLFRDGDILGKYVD

GroES [1] = target: T2, GroES; experiment: cell-based or functional assay
GroES [2] = target: T2, GroES; experiment: SPR; ProteOn XPR36; GroES or mHsp10 immobilised by amine coupling on a GLC chip; six concentrations of each mHsp60 variant injected; 20 mM Na-HEPES pH 7.5, 100 mM KCl, 10 mM MgCl2, 0.005% Tween, 2 mM ATP; apparent constants from equilibrium analysis; conditions: both partners purified
[3] = target: mitochondrial Hsp10, hexa-histidine-tagged (human, UniProt P61604 1-102); experiment: cell-based or functional assay
Sequence of mitochondrial Hsp10, hexa-histidine-tagged (P61604 whole entry): as the sequence (P61604 whole entry L33A) above, with A33L counted along it

Binder	inhibition of the chaperonin's steady-state ATPase activity by co-chaperonin (2:1 co-chaperonin:chaperonin) (GroES L27A mutant) [%]	inhibition of the chaperonin's steady-state ATPase activity by co-chaperonin (2:1 co-chaperonin:chaperonin) (mHsp10 L33A mutant) [%]	inhibition of the chaperonin's steady-state ATPase activity by co-chaperonin (2:1 co-chaperonin:chaperonin) (GroES [1]) [%]	KA ratio (apparent KA relative to that of mHsp60 and mHsp10) (GroES [2]) [ratio]	inhibition of the chaperonin's steady-state ATPase activity by co-chaperonin (2:1 co-chaperonin:chaperonin) [3] [%]
human mitochondrial Hsp60, wild type (natural protein, UniProt P10809 27-573, looked up) AKDVKFGADARALMLQGVDLLADAVAVTMGPKGRTVIIEQSWGSPKVTKDGVTVAKSIDLKDKYKNIGAKLVQDVANNTNEEAGDGTTTATVLARSIAKEGFEKISKGANPVEIRRGVMLAVDAVIAELKKQSKPVTTPEEIAQVATISANGDKEIGNIISDAMKKVGRKGVITVKDGKTLNDELEIIEGMKFDRGYISPYFINTSKGQKCEFQDAYVLLSEKKISSIQSIVPALEIANAHRKPLVIIAEDVDGEALSTLVLNRLKVGLQVVAVKAPGFGDNRKNQLKDMAIATGGAVFGEEGLTLNLEDVQPHDLGKVGEVIVTKDDAMLLKGKGDKAQIEKRIQEIIEQLDVTTSEYEKEKLNERLAKLSDGVAVLKVGGTSDVEVNEKKDRVTDALNATRAAVEEGIVLGGGCALLRCIPALDSLTPANEDQKIGIEIIKRTLKIPAMTIAKNAGVEGSLIVEKIMQSSSEVGYDAMAGDFVNMVEKGIIDPTKVVRTALLDAAGVASLLTTAEVVVTEIPKEEKDPGMGAMGGMGGGMGGGMF	0	0	0		
human mitochondrial Hsp60 E321K mutant (natural protein, UniProt P10809 27-573, looked up, human mitochondrial Hsp60 with E321K, isolated from an error-prone PCR library; also called E321K mHsp60; source: expressed in bacteria, purified as oligomers) AKDVKFGADARALMLQGVDLLADAVAVTMGPKGRTVIIEQSWGSPKVTKDGVTVAKSIDLKDKYKNIGAKLVQDVANNTNEEAGDGTTTATVLARSIAKEGFEKISKGANPVEIRRGVMLAVDAVIAELKKQSKPVTTPEEIAQVATISANGDKEIGNIISDAMKKVGRKGVITVKDGKTLNDELEIIEGMKFDRGYISPYFINTSKGQKCEFQDAYVLLSEKKISSIQSIVPALEIANAHRKPLVIIAEDVDGEALSTLVLNRLKVGLQVVAVKAPGFGDNRKNQLKDMAIATGGAVFGEEGLTLNLEDVQPHDLGKVGKVIVTKDDAMLLKGKGDKAQIEKRIQEIIEQLDVTTSEYEKEKLNERLAKLSDGVAVLKVGGTSDVEVNEKKDRVTDALNATRAAVEEGIVLGGGCALLRCIPALDSLTPANEDQKIGIEIIKRTLKIPAMTIAKNAGVEGSLIVEKIMQSSSEVGYDAMAGDFVNMVEKGIIDPTKVVRTALLDAAGVASLLTTAEVVVTEIPKEEKDPGMGAMGGMGGGMGGGMF	0	26	30	1.43	
human mitochondrial Hsp60 R264K/E358K double mutant (natural protein, UniProt P10809 27-573, looked up, human mitochondrial Hsp60 with R264K and E358K, isolated from an error-prone PCR library; also called R264K/E358K mHsp60; source: expressed in bacteria, purified as oligomers) AKDVKFGADARALMLQGVDLLADAVAVTMGPKGRTVIIEQSWGSPKVTKDGVTVAKSIDLKDKYKNIGAKLVQDVANNTNEEAGDGTTTATVLARSIAKEGFEKISKGANPVEIRRGVMLAVDAVIAELKKQSKPVTTPEEIAQVATISANGDKEIGNIISDAMKKVGRKGVITVKDGKTLNDELEIIEGMKFDRGYISPYFINTSKGQKCEFQDAYVLLSEKKISSIQSIVPALEIANAHRKPLVIIAEDVDGEALSTLVLNKLKVGLQVVAVKAPGFGDNRKNQLKDMAIATGGAVFGEEGLTLNLEDVQPHDLGKVGEVIVTKDDAMLLKGKGDKAQIEKRIQEIIEQLDVTTSKYEKEKLNERLAKLSDGVAVLKVGGTSDVEVNEKKDRVTDALNATRAAVEEGIVLGGGCALLRCIPALDSLTPANEDQKIGIEIIKRTLKIPAMTIAKNAGVEGSLIVEKIMQSSSEVGYDAMAGDFVNMVEKGIIDPTKVVRTALLDAAGVASLLTTAEVVVTEIPKEEKDPGMGAMGGMGGGMGGGMF	0	40	47		48
